According to the nanobody polyreactivity screen of Harvey et al. (2022):

Assay: yeast display, Sf9 membrane polyspecificity reagent, FACS + sequencing; frameworks hold sequencing errors
How it was run: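 Nanobodies from a synthetic yeast display library (Saccharomyces cerevisiae BJ5465), induced 36–48 hours with galactose, were stained 1 hour at 4 °C with 10% biotinylated, detergent-solubilized Sf9 membrane reagent, enriched on streptavidin microbeads, then FACS-sorted. Anti-HA (expression) and streptavidin (reagent binding) fluorescence set low and high (top ~1%) gates. Polyreactivity labels come from the gate of origin. Genes were colony-PCR amplified, MiSeq 2 × 250 sequenced and filtered by CDR length.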

Sequence	polyreactivity (PSR sort gate)
QVQLVESGGGIVQAGGSLRLSSAASGFIFARYAMGWYRQAPGKERELVAAISSGGRTYYADSVKGRFTISRDNAKNTVYLQMNSLKPEDTAVYYCAADPASSYGKYSYYYWGQGTQVTVSS	high polyreactivity
QVQLVESGGGIVQAGGSLRLSSAASGFTFYKYVMGWYRQSPGKERELVAAISYSSGSTYYADSVKGRFTISRDNAKNTVYLKMNSLKPDDTAVYYCAADSTYYGYAYYYWGQGSQVTVSS	high polyreactivity
QVQLVESGGGIVQAGGSLRLSSAASGSTFYTKSIGWYIQAPGKERELVAAISGSGGSTYYADSVKGRFTISRDTAKNTVYLQMISLKPEDTAVYSCAARSRYYDTRFDYWGQGTQVTVSS	low polyreactivity
QVQLVESGGGIVQAGGSLRLSWAASGSIFDKYAMGWYRQAHGKERELVAAIDSGDTYYADSVKGRFTISRDNAKNPVYFQMNSLKPEDTAVYYWAADDVQYEYDYWGQGTQVSVSS	low polyreactivity
QVQLVESGGGIVQAGGSLRLTCAASGFTFFYNAMGWYRQAPGKERELVAAITTNGGSTYYADSVKGRFTISRDNANNTVYLQMNSLKTEDTAVYYFAAEYGITEYDYWGQGTQVTVSS	low polyreactivity
QVQLVESGGGIVQAGGSLRVSCAASGSIFLDNAMGWYRQAPGKERELVADISYSGGSTYYADSVKGRFTISRDNAKNTVYLQMNSLKPEDTAVYYCAAGVQLTVPPLRSSVTEYDYWGQGTQVTVSS	low polyreactivity
QVQLVESGGGIVQAGGSLRVSCVSSGRTCSRYAMGWSRQAPGKDRELVAAISRRGGSTYYADSVKGRFTISRDNAKNTVYLQMKSLKREDTAVYYCAAGYITWGSGNWVVTPYDYWGQGSQVTVSS	high polyreactivity
QVQLVESGGGIVQAGGSLSLSCAASGYNFTQNAMGGYRQAPGKERELVASITSGGSTDYADSVKGRFTISRDNAKNTVYLQMNSLKPEDTAVYYCAAEFHFWGYLYDYWGQGTQVTVSS	low polyreactivity
QVQLVESGGGIVQAGGSLSLTWAASGSTFAYYAMGRYRQAPGKERELVAAISSSGGRTYYADSVKWRFTISRDNAKNTVYLQMIMLKPEDSAVYYCWGQATQVTVSS	low polyreactivity
QVQLVESGGGIVQAGGTLRLSCAASGSTFKNKAMGCNRHAPGKETEFVAGITRRGTSTYYADSVKGRFTISLDNAKNSVYLQMNSLKPEDTSVYYCAARAWYPSRYDYWGQGTLVTVSS	high polyreactivity
QVQLVESGGGIVQARGSLRLTSAASGITFQYYTMGWYRQAPGKERELVAGISDSDGDTYYADSVKGRFTISRDNAKKTVFLQMNSLKPEDTALYYCAADGYAYYRATTRFDYWGQGTQVTLSS	high polyreactivity
QVQLVESGGGIVQAVGSLRLSCAASGFTFFYYAMGWYRQAPGKERELVATISWNGGTTYYADSVKGRFTISRDNAKNTVYLQMNSLKPEDTAVYYCNARYDWTYLYDAGLVPGWDYDYWGQGTQLTVSS	low polyreactivity
QVQLVESGGGIVQSGGSLRLSFAASGSIVDWNAMGWYRQAPGKARELVASISSGGSTDYADSVKGRFTISRDNAKNTVYLQMNSLKPEDTAVYYCNADAYAYYPPRWYYGYDYWGQGTQVTVSS	low polyreactivity
QVQLVESGGGIYKAGGSLRLSCAASGSIIKINTLGRYRQAPRKERELVAAISTRGGSTYYADSVKGRFTISRDNSKNTVYLQMNSLKPDDTAVYFCAARQFYKYYYWGQGTQVTVSS	high polyreactivity
QVQLVESGGGKVQEGGSLRISCAASGSIFITYAMGWYRQAPGKERELVAAIRDSGDRTYYADSVKGRFTISRDNAKNTVYFQMNSLKPEDTAVYYCNARCQEPLKYDYWGQGTQVIVSS	low polyreactivity
QVQLVESGGGLAQAGGSLRLSCAASGSTFLYYAMGWYRQAPGKERELVDAIDSGGSTYYADSVKGRFTISRDNAKNTVYLQMNSLKPEDTAVYYCNADFADHWPPNGPGAHDYWGQGTQVTVSS	low polyreactivity

Sequence	polyreactivity (PSR sort gate)
QVQLVESGGGLDQAGASLRLSCAASGRIYVVNAMGWYREAPGKEMELVATNTRSGGITFYPDSVKGRFTISRDNAKNTVYLQMNSLNPEVTAVYYCNADVLFYTYYTRGRFDFDYWGQGTQVTVSS	low polyreactivity
QVQLVESGGGLDQAGASLRLSCAASGSIFVPYTMGWYRQAPGKERELVASISYSGGTTYYADSVKGRFTISRDNAKYTVYLQMNSLKPEDTAVYYCAADWDDSYSYRRYRHYDYWGQGTQVTVSS	low polyreactivity
QVQLVESGGGLDQAGGRLRLICAASGRTFTTYAMGWNRQAPGKERELVASISRRGGSTYYADSVKGRFTISRDNAKNTVYLQMTSLKPEDTAVYYCAAKTGTYRGRQVYTYGYWGQGTQVTVSS	high polyreactivity
QVQLVESGGGLDQAGGRLRLSCAASGIIFPIYAMRLYRQAPGKERELVAGISTGGGGTYYADSVKGRFTISRDNAKNTVYLQMNSLKPEDSAVYYCSTSGPLYYSRNFDYWGQGTQVTVSS	low polyreactivity
QVQLVESGGGLDQAGGRLRLSCAASGSTFSYYAKSWYIQAPGKERELVARITWRGGSTNYADSVKGRFTISRDNAKNTVYLQMNSLKPEDTAVYYCATKLTSRVPFDYWGQGTQVTVSS	high polyreactivity
QVQLVESGGGLDQAGGSHRLSCAASGSNLSGYAMVWYRQAPGKERELVADISWTGGSTYYADSVKGRLTISRDNAKNTVYLQMISLKPEVTAVYYCATRSGYRRSRVIYYHDDYGYWGQGTQVTVSS	high polyreactivity
QVQLVESGGGLDQAGGSLGLSCAPSGRTFFPYAMGWSRQAPGKEREFVAAITKTDDSTYYADSVKGRFTISRDKAKNTVYLPMNSLKPEDTAVYYCIAGDTQIRFYYWGQGTQVTVSS	low polyreactivity
QVQLVESGGGLDQAGGSLPLSCAASGNTFYPNAMGWYRQAPGKERELVAAITTSGGTTYYADSVKGRFTISRDNANYTVYLQMNSLKPEDTAVYYCAAYWSRDKYDYWGQGTQVTVSS	low polyreactivity
QVQLVESGGGLDQAGGSLPLSCAASGSIFYVYTMGTYRQAPGKERELVAAISFRSGSTYYADSVKGRFTISRDNAKNTVYLPMNSLKPEDTAVYYCAKPIPRGRNQLFNYWGQGTEVTVSS	high polyreactivity
QVQLVESGGGLDQAGGSLPLTCAASGRTFWGNAMGWYRQAPGQERELVAGISKSGGTTYADSVKGRFTISRDNAKNTVYLEMNRLKPEDTAVYYCAAGGWWWTIPYEYWGQGTKVTVSS	high polyreactivity
QVQLVESGGGLDQAGGSLRLICAASGFIFVWYAMGWYRPAPGKERELVAAISRRGGGTYYADSVKGRFTISRDNAKNTVYLQMNSLKPEDTAVYYCAAGSYYRYGYDFNYWGQGTQVTVSS	high polyreactivity
QVQLVESGGGLDQAGGSLRLICAASGGTSQRYVMGWYRQAPGKERELVAAITKSGVRTYYADSVKGRFTISRDNAKNKVYLQMNSLKPEDTAVYYCAAKTPTKDRGSDFDYWGQGTQVTVSS	high polyreactivity
QVQLVESGGGLDQAGGSLRLICAASGRTFRFNTMGWYRQAPGKERELVATISRRGGSTYYADSVKGRFTISRDNAKNTVYLLMNSLKPEDTAVYYCAVYGGSYRFDYWGQGTQVTVSS	high polyreactivity
QVQLVESGGGLDQAGGSLRLICADSGSIFYIYAMGWYIHAPGKETELVASISGSGSTYYADSVKGRFRISRDNAKNTVYLQMNSLKPEDTAVYYCAVELWRVWGAYSYTYDYWGQGTQVTVSS	high polyreactivity
QVQLVESGGGLDQAGGSLRLSCAAAGITFTYYAMGWYRPAPGKERELVASITIGGGSTYYADSVKVRFTISRDNAKNTVYLQMKSLKPEDTAVYYCNAAFSVRHLYRYDYWGQGTQVTVSS	low polyreactivity
